The target in the test is 53BP1 fragment (a.a. 1221-1718) fused to an adenylate cyclase fragment (two-hybrid) (UniProt Q12888). Nature of the test: cell-based or functional assay.
Substance “i53 + K48N two-hybrid fusion (designed binder)” registered an Experiment 1 Average Enrichment of -0.04 log2, an Experiment 1 Rep 1 Enrichment of -0.15 log2, an Experiment 1 Rep 2 Enrichment of 0.08 log2 and an Experiment 2 Average Enrichment of 0.06 log2. The substance further yielded an Experiment 2 Rep 1 Enrichment of 0.09 log2 and an Experiment 2 Rep 2 Enrichment of 0.03 log2.

Substance “i53 + K48Q two-hybrid fusion (designed binder)” registered an Experiment 1 Average Enrichment of 0.55 log2, an Experiment 1 Rep 1 Enrichment of 0.59 log2, an Experiment 1 Rep 2 Enrichment of 0.51 log2 and an Experiment 2 Average Enrichment of 0.34 log2. This substance came in with an Experiment 2 Rep 1 Enrichment of 0.2 log2 and an Experiment 2 Rep 2 Enrichment of 0.47 log2.

With “i53 + K48R two-hybrid fusion (designed binder)”, the Experiment 1 Average Enrichment came to 0.35 log2, the Experiment 1 Rep 1 Enrichment is 0.39 log2, the Experiment 1 Rep 2 Enrichment stood at 0.32 log2 and the Experiment 2 Average Enrichment was determined as 0.14 log2. The substance further gave an Experiment 2 Rep 1 Enrichment of 0.09 log2 and an Experiment 2 Rep 2 Enrichment of 0.19 log2.

Take “i53 + K48V two-hybrid fusion (designed binder)”: the Experiment 1 Average Enrichment worked out at 0.54 log2, the Experiment 1 Rep 1 Enrichment worked out at 0.59 log2, the Experiment 1 Rep 2 Enrichment turned out to be 0.48 log2 and the Experiment 2 Average Enrichment was 0.34 log2. The substance further showed an Experiment 2 Rep 1 Enrichment of 0.23 log2 and an Experiment 2 Rep 2 Enrichment of 0.46 log2.

Turning to “i53 + K63F two-hybrid fusion (designed binder)”, the Experiment 1 Average Enrichment was -0.02 log2, the Experiment 1 Rep 1 Enrichment was -0.01 log2, the Experiment 1 Rep 2 Enrichment is -0.02 log2 and the Experiment 2 Average Enrichment stood at 0.08 log2. The substance also displayed an Experiment 2 Rep 1 Enrichment of -0.06 log2 and an Experiment 2 Rep 2 Enrichment of 0.22 log2.

The substance “i53 + K63M two-hybrid fusion (designed binder)” displayed an Experiment 1 Average Enrichment of -0.07 log2, an Experiment 1 Rep 1 Enrichment of -0.24 log2, an Experiment 1 Rep 2 Enrichment of 0.09 log2 and an Experiment 2 Average Enrichment of 0.2 log2. Moreover, the Experiment 2 Rep 1 Enrichment came to 0.18 log2 and the Experiment 2 Rep 2 Enrichment is 0.22 log2.

For the substance “i53 + K63V two-hybrid fusion (designed binder)”, the Experiment 1 Average Enrichment is -0.13 log2, the Experiment 1 Rep 1 Enrichment was -0.15 log2, the Experiment 1 Rep 2 Enrichment was -0.11 log2 and the Experiment 2 Average Enrichment came to 0.01 log2. The same substance gave an Experiment 2 Rep 1 Enrichment of 0 log2 and an Experiment 2 Rep 2 Enrichment of 0.02 log2.

As to “i53 + K66R two-hybrid fusion (designed binder)”, the Experiment 1 Average Enrichment was -0.69 log2, the Experiment 1 Rep 1 Enrichment was -0.84 log2, the Experiment 1 Rep 2 Enrichment was -0.54 log2 and the Experiment 2 Average Enrichment stood at 0.55 log2. The Experiment 2 Rep 1 Enrichment turned out to be 0.13 log2 and the Experiment 2 Rep 2 Enrichment is 0.97 log2.

Regarding “i53 + L67C two-hybrid fusion (designed binder)”, the Experiment 1 Average Enrichment was found to be 0.04 log2, the Experiment 1 Rep 1 Enrichment was -0.31 log2, the Experiment 1 Rep 2 Enrichment came to 0.39 log2 and the Experiment 2 Average Enrichment was 0.73 log2. This substance also had an Experiment 2 Rep 1 Enrichment of 0.96 log2 and an Experiment 2 Rep 2 Enrichment of 0.5 log2.

“i53 + L67K two-hybrid fusion (designed binder)”: the Experiment 1 Average Enrichment came out at 2.01 log2, the Experiment 1 Rep 1 Enrichment turned out to be 2.08 log2, the Experiment 1 Rep 2 Enrichment was 1.93 log2 and the Experiment 2 Average Enrichment was found to be 0.89 log2. Further, the Experiment 2 Rep 1 Enrichment was 1.4 log2, the Experiment 2 Rep 2 Enrichment was found to be 0.39 log2, the Percent GFP Positive Rep 1 was 24.2% and the Percent GFP Positive Rep 2 was found to be 11.2%. Further, the Percent GFP Positive Rep 3 stood at 21.5%.

“i53 + L67M two-hybrid fusion (designed binder)” had an Experiment 1 Average Enrichment of 1.03 log2, an Experiment 1 Rep 1 Enrichment of 0.98 log2, an Experiment 1 Rep 2 Enrichment of 1.07 log2 and an Experiment 2 Average Enrichment of 0.77 log2. Also, the Experiment 2 Rep 1 Enrichment was 0.65 log2 and the Experiment 2 Rep 2 Enrichment turned out to be 0.88 log2.

The substance “i53 + L67S two-hybrid fusion (designed binder)” came in with an Experiment 1 Average Enrichment of 1.18 log2, an Experiment 1 Rep 1 Enrichment of 1.15 log2, an Experiment 1 Rep 2 Enrichment of 1.2 log2 and an Experiment 2 Average Enrichment of 0.94 log2. The Experiment 2 Rep 1 Enrichment is 1.24 log2 and the Experiment 2 Rep 2 Enrichment came out at 0.63 log2.

“i53 + L67T two-hybrid fusion (designed binder)” returned an Experiment 1 Average Enrichment of 0.09 log2, an Experiment 1 Rep 1 Enrichment of 0.69 log2, an Experiment 1 Rep 2 Enrichment of -0.52 log2 and an Experiment 2 Average Enrichment of 0.11 log2. Besides, the Experiment 2 Rep 1 Enrichment was -0.3 log2 and the Experiment 2 Rep 2 Enrichment worked out at 0.52 log2.

With “i53 + L67Y two-hybrid fusion (designed binder)”, the Experiment 1 Average Enrichment was 0.14 log2, the Experiment 1 Rep 1 Enrichment was -0.58 log2, the Experiment 1 Rep 2 Enrichment came to 0.86 log2 and the Experiment 2 Average Enrichment was 0.58 log2. Besides, the Experiment 2 Rep 1 Enrichment was 0.5 log2 and the Experiment 2 Rep 2 Enrichment turned out to be 0.65 log2.

With “i53 + L73M two-hybrid fusion (designed binder)”, the Experiment 1 Average Enrichment is 2.61 log2, the Experiment 1 Rep 1 Enrichment was found to be 2.69 log2, the Experiment 1 Rep 2 Enrichment amounted to 2.52 log2 and the Experiment 2 Average Enrichment was determined as 1.43 log2. The same substance returned an Experiment 2 Rep 1 Enrichment of 1.58 log2, an Experiment 2 Rep 2 Enrichment of 1.28 log2, a Percent GFP Positive Rep 1 of 36.2% and a Percent GFP Positive Rep 2 of 29.2%. This substance displayed a Percent GFP Positive Rep 3 of 39.5%.

“i53 + M1F two-hybrid fusion (designed binder)” showed an Experiment 1 Average Enrichment of 0.8 log2, an Experiment 1 Rep 1 Enrichment of 0.71 log2, an Experiment 1 Rep 2 Enrichment of 0.9 log2 and an Experiment 2 Average Enrichment of 0.36 log2. This substance returned an Experiment 2 Rep 1 Enrichment of 0.39 log2 and an Experiment 2 Rep 2 Enrichment of 0.33 log2.

“i53 + M1I two-hybrid fusion (designed binder)” yielded an Experiment 1 Average Enrichment of 0.06 log2, an Experiment 1 Rep 1 Enrichment of 0.11 log2, an Experiment 1 Rep 2 Enrichment of 0.01 log2 and an Experiment 2 Average Enrichment of 0 log2. Besides, the Experiment 2 Rep 1 Enrichment is -0.18 log2 and the Experiment 2 Rep 2 Enrichment came to 0.19 log2.

“i53 + M1N two-hybrid fusion (designed binder)” returned an Experiment 1 Average Enrichment of -0.25 log2, an Experiment 1 Rep 1 Enrichment of -0.37 log2, an Experiment 1 Rep 2 Enrichment of -0.13 log2 and an Experiment 2 Average Enrichment of 0.02 log2. For the same substance, the Experiment 2 Rep 1 Enrichment was -0.04 log2 and the Experiment 2 Rep 2 Enrichment is 0.08 log2.

As for “i53 + M1Q two-hybrid fusion (designed binder)”, the Experiment 1 Average Enrichment was 1.31 log2, the Experiment 1 Rep 1 Enrichment stood at 1.23 log2, the Experiment 1 Rep 2 Enrichment amounted to 1.38 log2 and the Experiment 2 Average Enrichment was 0.68 log2. For the same substance, the Experiment 2 Rep 1 Enrichment was 0.58 log2 and the Experiment 2 Rep 2 Enrichment came to 0.79 log2.

As for “i53 + M1R two-hybrid fusion (designed binder)”, the Experiment 1 Average Enrichment is 0.1 log2, the Experiment 1 Rep 1 Enrichment was -0.01 log2, the Experiment 1 Rep 2 Enrichment came out at 0.22 log2 and the Experiment 2 Average Enrichment is 0.21 log2. The substance also gave an Experiment 2 Rep 1 Enrichment of 0.11 log2 and an Experiment 2 Rep 2 Enrichment of 0.3 log2.

The substance “i53 + M1S two-hybrid fusion (designed binder)” displayed an Experiment 1 Average Enrichment of 0.38 log2, an Experiment 1 Rep 1 Enrichment of 0.55 log2, an Experiment 1 Rep 2 Enrichment of 0.21 log2 and an Experiment 2 Average Enrichment of 0.34 log2. Moreover, the Experiment 2 Rep 1 Enrichment worked out at 0.27 log2 and the Experiment 2 Rep 2 Enrichment turned out to be 0.41 log2.

Substance “i53 + M1T two-hybrid fusion (designed binder)” came in with an Experiment 1 Average Enrichment of 0.68 log2, an Experiment 1 Rep 1 Enrichment of 0.79 log2, an Experiment 1 Rep 2 Enrichment of 0.56 log2 and an Experiment 2 Average Enrichment of 0.61 log2. This substance also had an Experiment 2 Rep 1 Enrichment of 0.63 log2 and an Experiment 2 Rep 2 Enrichment of 0.6 log2.

“i53 + M1W two-hybrid fusion (designed binder)” registered an Experiment 1 Average Enrichment of 1.83 log2, an Experiment 1 Rep 1 Enrichment of 1.95 log2, an Experiment 1 Rep 2 Enrichment of 1.71 log2 and an Experiment 2 Average Enrichment of 0.96 log2. Besides, the Experiment 2 Rep 1 Enrichment was determined as 0.99 log2 and the Experiment 2 Rep 2 Enrichment is 0.92 log2.

Take “i53 + M1Y two-hybrid fusion (designed binder)”: the Experiment 1 Average Enrichment is 2.36 log2, the Experiment 1 Rep 1 Enrichment is 2.56 log2, the Experiment 1 Rep 2 Enrichment is 2.16 log2 and the Experiment 2 Average Enrichment amounted to 1 log2. The Experiment 2 Rep 1 Enrichment was determined as 1.18 log2 and the Experiment 2 Rep 2 Enrichment worked out at 0.81 log2.

Turning to “i53 + N25A two-hybrid fusion (designed binder)”, the Experiment 1 Average Enrichment was 0.3 log2, the Experiment 1 Rep 1 Enrichment is 0.12 log2, the Experiment 1 Rep 2 Enrichment was determined as 0.49 log2 and the Experiment 2 Average Enrichment turned out to be 0.4 log2. Also, the Experiment 2 Rep 1 Enrichment was determined as 0.39 log2 and the Experiment 2 Rep 2 Enrichment was found to be 0.4 log2.

Substance “i53 + N25C two-hybrid fusion (designed binder)” registered an Experiment 1 Average Enrichment of 0.13 log2, an Experiment 1 Rep 1 Enrichment of 0.45 log2, an Experiment 1 Rep 2 Enrichment of -0.19 log2 and an Experiment 2 Average Enrichment of 0.26 log2. Moreover, the Experiment 2 Rep 1 Enrichment stood at 0.31 log2 and the Experiment 2 Rep 2 Enrichment is 0.21 log2.

In the case of “i53 + N25D two-hybrid fusion (designed binder)”, the Experiment 1 Average Enrichment was 0.33 log2, the Experiment 1 Rep 1 Enrichment turned out to be 0.11 log2, the Experiment 1 Rep 2 Enrichment came to 0.54 log2 and the Experiment 2 Average Enrichment is 0.45 log2. This substance also gave an Experiment 2 Rep 1 Enrichment of 0.49 log2 and an Experiment 2 Rep 2 Enrichment of 0.41 log2.
